Assay [1] deals with T1, EGFRvIII fragment amino acid residues 3 to 18, displayed on yeast (human).
T1 construct: also called aa 3-18
T1 peptide: EKKGNYVVTDHGSCVR
Put plainly: yeast surface display, flow cytometry. (In general: Flow cytometry measures light scatter and fluorescence of single cells or particles in a stream.)

The target in assay [2] is T2, recombinant human EGFRvIII protein (extracellular domain), denatured (human, UniProt P00533 298-623).
T2 construct: Same protein as m21 after 95 C for 5 min in PBS with 40 mM DTT (denatured, reduced); also called EGFRvIII Denatured
The experiment in a line: ELISA Exp 2, purified mAb 1 ug/ml.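 Note: ELISA of purified mAb binding to plate-coated antigen, native or heat/DTT-denatured, with pNPP substrate developed for 30 min and incubations at room temperature.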
Method: (§1) Pre- and post-immune sera titers of animals were assessed by ELISA on recombinant EGFRvIII protein. Unless otherwise stated, all incubations were performed at room temperature. […] Microplates were washed three times in PBS and blocked for 30 min with PBS containing 1% bovine serum albumin (BSA, Sigma Cat #A7030). Blocking buffer was removed and 25 μl of serial dilutions of sera samples were added. […] After a 1-h incubation, microplates were washed 4 times and 25 μl of p-nitrophenyl phosphate (pNPP) substrate (Sigma-Aldrich Canada Co., Oakville, ON) at 1 mg/ml in carbonate buffer at pH 9.6 was added and further incubated for 30 min.
(§2) Antigens at 1-2 mg/ml were incubated at 95° C. for 5 min in PBS containing DTT at a final concentration of 40 mM. They were then incubated on ice for 5 min and diluted at their final coating concentration for ELISA purpose.
(§3) ELISA was performed as described above (serum titer determination) using 25 μl of mAb supernatant (Exp 1) or purified mAb at 1 μg/ml (Exp 2).

The target in assay [3] is T3, recombinant human wild type EGFR protein (extracellular domain), native (human, UniProt P00533 25-645).
T3 construct: also called wt EGFR; EGFR WT
Put plainly: ELISA Exp 2, purified mAb 1 ug/ml.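 Note: ELISA of purified mAb binding to plate-coated antigen, native or heat/DTT-denatured, with pNPP substrate developed for 30 min and incubations at room temperature.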 In general terms: In an ELISA, binding on a coated surface is turned into a signal by an enzyme label.
Method: as §1, §2, §3

The target of assay [4] is T4, recombinant human wild type EGFR protein (extracellular domain), denatured (human, UniProt P00533 25-645).
T4 construct: Same protein as m23 after 95 C for 5 min in PBS with 40 mM DTT (denatured, reduced); also called wt EGFR Denatured
The experiment in a line: ELISA Exp 2, purified mAb 1 ug/ml.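 Note: ELISA of purified mAb binding to plate-coated antigen, native or heat/DTT-denatured, with pNPP substrate developed for 30 min and incubations at room temperature.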
Method: as §1, §2, §3

Assay [5] addresses T5, recombinant human EGFRvIII protein (extracellular domain), native (human, UniProt P00533 298-623).
T5 construct: also called hEGFRvIII
Put plainly: ELISA Exp 2, purified mAb 1 ug/ml.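 Note: ELISA of purified mAb binding to plate-coated antigen, native or heat/DTT-denatured, with pNPP substrate developed for 30 min and incubations at room temperature.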
Method: as §1, §2, §3

Assay [6] has as its target T6, wild type human EGFR, full length, overexpressed on U87MG cells (human, UniProt P00533 25-1210). The experiment in a line: cell-based or functional assay.
The target in assay [7] is T7, EGFRvIII, full length, overexpressed on glioblastoma cells (human, UniProt P00533 298-623). Put plainly: cell-based or functional assay.
For assay [8], the target named is T6, wild type human EGFR, full length, …. Put plainly: flow cytometry dose-response, U87MG-EGFRwt cells.
Method: (§4) Prior to analysis, cells were plated such that they were not more than 80% confluent on the day of analysis. Unless otherwise stated, all media are kept are 4° C. and all incubations are performed on wet ice. Cells were washed in PBS, harvested by the addition of cell dissociation buffer (Sigma), centrifuged and resuspended in complete medium at a cell density of 2×10⁶ cells/mL. Fifty μL/well of cells were distributed in a polypropylene v-bottom 96 well plate and serial 1/3 dilutions of purified mAbs starting at 100 nM were added and incubated for 2 hours. […] Cells were washed and re-suspended in medium containing Propidium iodide to exclude dead cells from analysis. Samples were filtered through a 60 μm nylon mesh filter plate (Millipore, Ireland) to remove cell aggregates. Flow cytometry analyses were performed on 2,000 viable single-cells events gated on forward scattering, side scattering parameters and propidium iodide dye exclusion using a BD-LSRFortessa flow cytometer (Becton-Dickinson Biosciences, CA, USA) and a standard filter set using BD FACSDiva™ acquisition software, according to manufacturer's instructions.
(§5) Specific detection of antibody binding was calculated as the mean fluorescent intensity of binding to each primary antibody after background level subtraction of the mean fluorescent intensity of binding of mouse IgG control. The data were analyzed with GraphPad Prism v 6.0 software using one-site specific binding with Hill slope non-linear regression curve fit model to determine Bmax (maximum specific binding) and Kdₐₚₚ (concentration needed to achieve a half-maximum binding at equilibrium) for each mAb tested.
Assay [9] shares this target. The experiment in a line: cell-based or functional assay. The source holds these as a separate data set.
For assay [10], the target named is T7, EGFRvIII, full length, overexpressed on …. The experiment in a line: cell-based or functional assay. This is another data set of the same source.
The target of assay [11] is T2, recombinant human EGFRvIII protein …. The experiment in a line: ELISA Exp 1, mAb supernatant.
Method: as §1, §2, §3
Assay [12] addresses T3, recombinant human wild type EGFR …. The experiment in a line: ELISA Exp 1, mAb supernatant.
Method: as §1, §2, §3
In assay [13] the target is T4, recombinant human wild type EGFR …. The experiment in a line: ELISA Exp 1, mAb supernatant.
Method: as §1, §2, §3
For assay [14], the target named is T5, recombinant human EGFRvIII protein …. The experiment in a line: ELISA Exp 1, mAb supernatant.
Method: as §1, §2, §3
For assay [15], the target named is T7, EGFRvIII, full length, overexpressed on …. The experiment in a line: flow cytometry dose-response on U87MG-EGFRvIII cells, apparent Kd.
Method: as §4, §5
The target of assay [16] is T8, EGFRvIII fragment amino acid residues 1 to 18, displayed on yeast (human).
T8 construct: also called aa 1-18
T8 peptide: LEEKKGNYVVTDHGSCVR
The experiment in a line: yeast surface display, flow cytometry.

The target in assay [17] is T7, EGFRvIII, full length, overexpressed on …. The experiment in a line: cell-based or functional assay. This is another data set of the same source.

The record followed here is patent publication US20220193132A1 (NATIONAL RESEARCH COUNCIL OF CANADA, published 2022).

Bounds are passed on as bounds.

B1: F263-1A8 (antibody, V domains shown)
VH: EVQLQQSGAELVRPGALVKLSCKASGFNIKDYYMHWVKQRPEQGLEWIGWIDPENGNTIYDPKFQGKATITADTSSNTAYLQLSSLASEDTAVYYCARGWLLLWGQGTTLTVSS
VL: not shown
notes: Mouse hybridoma mAb
For the molecule B1, the binding result was “binds” in assay [1] and “no binding (tested: 100 nM highest concentration)” in assay [8]. For the same molecule, the “ELISA absorbance 405 nm” value was 1.71 A405 in assay [2]; 0.002 A405 in [3]; 0.001 A405 in assay [4]; 1.79 A405 in assay [5]; 2.09 A405 in assay [11]; 0.016 A405 in [12]. Besides, the “ELISA absorbance 405 nm” value in assay [13] stood at 0.013 A405; in assay [14], 1.67 A405. The “% internalization (pHrodo surrogate assay, vs 225 mAb)” value (“% internalization” for short) in [6] was below 2%; in assay [7] it was 100%. Moreover, the “% survival (DM1 secondary-conjugate ADC surrogate assay, vs mouse IgG)” value (“% survival” below) in assay [9] is above 98%; in assay [10], 65%. In assay [15], the Kd is 2 nM.

B2: F266-11C8 (antibody, V domains shown)
VH: QIQLVQSGPELKKPGETVKISCKASGYTFTTAGMQWVQKMPGKGFKWIGWINTHSGDPKYAEDFKGRFAFSLETYASTAYLQISNLKNEDTASYFCARTHIYDGYNYAMDYWGQGTSVTVSS
VL: DVVMTQTPLSLPVSLGDQASISCRSSQSLVYSNGNTYLHWYLQKPGQSPKLLIYKVSNRFSGVPDRFSGSGSGTDFTLKISRVEAEDLGVYFCSQSTHVPFTFGSGTKLEIK
notes: Mouse hybridoma mAb; also called 11H5 (11C8)
With B2, the values for the binding result in [16] and in assay [8] were “binds” and “no binding (tested: 100 nM highest concentration)”, respectively. Also, the “ELISA absorbance 405 nm” value in assay [2] is 1.71 A405; in assay [3] it was 0 A405; in assay [4] it was -0.001 A405; in [5] it was 1.72 A405; in assay [11] it was 2.1 A405; in assay [12], 0.011 A405. Also, the “ELISA absorbance 405 nm” value turned out to be 0.009 A405 in assay [13] and 1.56 A405 in assay [14]. Also, the “% internalization” value in assay [6] was below 2%; in assay [7], 136%. The entries for the “% survival” value in assay [9] and in assay [10] were above 98% and 55%, respectively. Besides, the Kd in assay [15] was 3.5 nM.

B3: F266-11B1 (antibody, V domains shown)
VH: QIQLVQSGPELKKPGETVKISCKASGYTFTTAGMQWVKKMPGKGFKWIGWINTHSGDPKYAEDFKGRFAFSLETYASTAYLQISNLKNEDTASYFCARTHIYDGYNYAMDYWGQGTSVTVSS
VL: DVVMTQTPLSLPVSLGDQASISCRSSQSLVYSNGNTYLHWYLQKPGQSPKLLIYKVSNRFSGVPDRFSGSGSGTDFTLKISRVEAEDLGVYFCSQSTHVPFTFGSGTKLEIK
notes: Mouse hybridoma mAb
Take B3: the binding result is reported as “binds” in assay [16] and “no binding (tested: 100 nM highest concentration)” in assay [8]. The “ELISA absorbance 405 nm” value in [2] stood at 1.77 A405; in assay [3] it was 0.002 A405; in [4], 0.004 A405; in assay [5], 1.72 A405; in [11], 2.2 A405; in [12], 0.034 A405. In addition, the entries for the “ELISA absorbance 405 nm” value in [13] and in [14] were 0.032 A405 and 1.67 A405, respectively. The “% internalization” value was below 2% in assay [6] and 131% in [7]. Further, the entries for the “% survival” value in [9] and in [10] were above 98% and 62%, respectively. Also, the Kd in assay [15] was found to be 2.2 nM.

B4: F266-11H3 (antibody, V domains shown)
VH: QIQLVQSGPELKKPGETVKISCKASGYTFTTAGMQWVQKMPGKGFKWIGWINTHSGDPKYAEDFKGRFAFSLETYASTAYLQISNLKNEDTATYFCARTHIYDGYNYAMDYWGQGTSVTVSS
VL: DVVMTQTPLSLPVSLGDQASISCRSSQSLVYSNGNTYLHWYLQKPGQSPKLLIYKVSNRFSGVPDRFSGSGSGTDFTLKISRVEAEDLGVYFCSQSTHVPFTFGSGTKLEIK
notes: Mouse hybridoma mAb
Take B4: the binding result in [16] is “binds”; in assay [8], “no binding (tested: 100 nM highest concentration)”. Moreover, the “ELISA absorbance 405 nm” value in [2] was 1.79 A405; in assay [3], 0.001 A405; in assay [4], 0 A405; in assay [5], 1.78 A405; in assay [11] it was 2.1 A405; in assay [12] it was 0.053 A405. The “ELISA absorbance 405 nm” value in [13] is 0.041 A405; in [14], 1.66 A405. The “% internalization” value in [6] is below 2%; in assay [7], 131%. Moreover, the “% survival” value in assay [9] was above 98%; in assay [10], 62%. In assay [15], the Kd is 2.5 nM.

B5: hFc-13.1.2-MMAE (antibody, human IgG1, kappa, V domains shown)
VH: QVQLVESGGGVVQPGRSLRLSCAASGFTFSSYGMHWVRQAPGKGLEWVAVIWYDGSNKYYVDSVKGRFTISRDNSKNTLYLQMNSLRAEDTAVYYCARDGWQQLAPFDYWGQGTLVTVSS
VL: not shown
modifications: MC-vc-PAB-MMAE on reduced interchain cysteines
Regarding B5, in assay [17], the “IC50 of growth inhibition, DKMG EGFRvIII cells” value was 2.5 nM and the “IC50 of growth inhibition, U87MG EGFRvIII cells” value is 1.9 nM.

B6: F260-5G6 (antibody, V domains shown)
VH: EVQLQQSGAELARPGASVKMSCKASGYTFTSYWMHWVKQRPGQGLEWIGAIYPGNSDISYNQKFKGKAKLTAVTSATTAYMELSSLTNEDSAVYYCTLYDYDPDYWGQGTTLTVSS
VL: not shown
notes: Mouse hybridoma mAb
As for B6, the values for the binding result in assay [1] and in assay [8] were “binds” and “no binding (tested: 100 nM highest concentration)”, respectively. Further, the “ELISA absorbance 405 nm” value in assay [2] was determined as 1.74 A405; in assay [3] it was 0.001 A405; in assay [4], 0 A405; in [5] it was 1.74 A405; in assay [11], 1.94 A405; in assay [12], 0 A405. Besides, the “ELISA absorbance 405 nm” value in assay [13] is 0.005 A405; in assay [14] it was 1.45 A405. Moreover, the “% internalization” value in assay [6] is below 2%; in [7] it was 102%. Moreover, the “% survival” value amounted to 91% in assay [9] and 55% in assay [10]. Further, in assay [15], the Kd worked out at 4.2 nM.

B7: hFc-5G6-MMAE (antibody, human IgG1, kappa, V domains shown)
VH: EVQLQQSGAELARPGASVKMSCKASGYTFTSYWMHWVKQRPGQGLEWIGAIYPGNSDISYNQKFKGKAKLTAVTSATTAYMELSSLTNEDSAVYYCTLYDYDPDYWGQGTTLTVSS
VL: not shown
modifications: MC-vc-PAB-MMAE on reduced interchain cysteines
As for B7, in assay [17], the “IC50 of growth inhibition, DKMG EGFRvIII cells” value was 0.3 nM and the “IC50 of growth inhibition, U87MG EGFRvIII cells” value was found to be 0.3 nM.

B8: hFc-4E11-MMAE (antibody, human IgG1, kappa, V domains shown)
VH: DVQLQESGPGLVKPSQSLSLTCTVTGYSITSDYAWNWIRQFPGNKLEWMGYIGYNGRTSYNPSLKSRISITRDTSKNQFFLQLNYVTTEDTATFYCARLGRGFAYWGQGTLVTVSA
VL: DILMTQSPSSMSVSLGDTVSITCHASQGINSNIGWLLQKPGKSFKGLIYHGTNLEDGVPSRFSGSGSGTDYSLTISSLESEDFADYYCVQYAQFPYTFGGGTKLEIKR
modifications: MC-vc-PAB-MMAE on reduced interchain cysteines
As to B8, the “IC50 of growth inhibition, U87MG EGFRvIII cells” value in assay [17] came out at 0.2 nM.
